Test results as given in publication PMC3236217.
Values belong to the molecule of their own block, whether it stands above or below them.

Tests used:
[1] = target: inactive ERK2 (UniProt P63086); assay: pull-down; 9 µg active phosphorylated (without or with 1 mM ATP) or inactive ERK2 covalently attached to CNBr-activated Sepharose, 3 µg purified arrestin in 60 µl of 50 mM Tris-HCl pH 7.4, 100 mM KCl, 1 mM EGTA, 1 mM DTT, 20 min at 30°C; two washes; bound arrestin quantified by Western blot
[2] = target: T1, active ERK2 phosphorylated at Thr183 and Tyr185 (PP-ERK2), P63086; assay: pull-down on ERK2-Sepharose (CNBr-activated Sepharose with covalently attached ERK2), bound arrestin quantified by Western blot; details: chain shown with the change, 9 µg immobilised ERK2, 3 µg arrestin in 60 µl, 50 mM Tris-HCl, pH 7.4, 100 mM KCl, 1 mM EGTA, 1 mM DTT, 20 min at 30°C, read off a plot
T1 chain: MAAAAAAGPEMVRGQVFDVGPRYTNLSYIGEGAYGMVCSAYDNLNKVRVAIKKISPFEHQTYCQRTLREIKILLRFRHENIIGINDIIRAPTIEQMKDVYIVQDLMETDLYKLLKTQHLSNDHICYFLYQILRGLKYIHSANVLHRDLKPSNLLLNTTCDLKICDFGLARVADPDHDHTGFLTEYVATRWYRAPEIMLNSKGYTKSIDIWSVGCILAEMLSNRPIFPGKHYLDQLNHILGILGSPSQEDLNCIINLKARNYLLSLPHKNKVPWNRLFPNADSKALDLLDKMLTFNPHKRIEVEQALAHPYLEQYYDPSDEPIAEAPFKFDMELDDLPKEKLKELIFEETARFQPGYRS

[3] = target: T2, inactive ERK2, P63086; assay: as above; details: chain shown with the change; no ATP; 9 µg immobilised ERK2, 3 µg arrestin in 60 µl; 50 mM Tris-HCl, pH 7.4, 100 mM KCl, 1 mM EGTA, 1 mM DTT; 20 min at 30°C; parent: est. 1.6; read off a plot
T2 chain: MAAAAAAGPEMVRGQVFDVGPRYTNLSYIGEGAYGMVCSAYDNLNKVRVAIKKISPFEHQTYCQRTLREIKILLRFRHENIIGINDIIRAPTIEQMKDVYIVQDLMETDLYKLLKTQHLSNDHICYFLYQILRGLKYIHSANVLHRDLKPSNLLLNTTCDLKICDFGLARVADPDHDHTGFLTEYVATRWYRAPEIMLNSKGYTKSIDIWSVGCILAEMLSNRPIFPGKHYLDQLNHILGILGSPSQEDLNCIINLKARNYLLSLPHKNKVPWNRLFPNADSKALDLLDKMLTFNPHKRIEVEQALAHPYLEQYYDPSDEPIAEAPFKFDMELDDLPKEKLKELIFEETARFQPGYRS

[4] = target: constitutively active MEK1, Q02750

response ([2]; no ATP, parent: est. 4.6): 1.4 pmol
response ([2]; with 1 mM ATP, parent: est. 3.0): 1.7 pmol
response [3]: 0.9 pmol
B1: arrestin-2, P17870 3A (protein)
chain: MGDKGTRVFKKASPNGKLTVYLGKRDFVDHIDLVEPVDGVVLVDPEYLKERRVYVTLTCAFRYGREDLDVLGLTFRKDLFVANVQSFPPAPEDKKPLTRLQERLIKKLGEHAYPFTFEIPPNLPCSVTLQPGPEDTGKACGVDYEVKAFCAENLEEKIHKRNSVRLVIRKVQYAPERPGPQPTAETTRQFLMSDKPLHLEASLDKEIYYHGEPISVNVHVTNNTNKTVKKIKISVRQYADICLFNTAQYKCPVAMEEADDTVAPSSTFCKVYTLTPFLANNREKRGLALDGKLKHEDTNLASSTLLREGANREILGIIVSYKVKVKLVVSRGGLLGDLASSDVAVELPFTLMHPKPKEEPPHREVPEHETPVDTNLIELDTNDDDAAAEDFARQRLKGMKDDKEEEEDGTGSPRLNDR

increase of ERK2 phosphorylation (32P incorporation) by purified MEK1 in the presence of 4.4 pmol arrestin-3, against no arrestin [4]: 41%
B3: arrestin-3, P32120 1-420 (natural protein)
chain: MGEKPGTRVFKKSSPNCKLTVYLGKRDFVDHLDKVDPVDGVVLVDPDYLKDRKVFVTLTCAFRYGREDLDVLGLSFRKDLFIANYQAFPPTPNPPRPPTRLQERLLRKLGQHAHPFFFTIPQNLPCSVTLQPGPEDTGKACGVDFEIRAFCAKSLEEKSHKRNSVRLVIRKVQFAPEKPGPQPSAETTRHFLMSDRSLHLEASLDKELYYHGEPLNVNVHVTNNSTKTVKKIKVSVRQYADICLFSTAQYKCPVAQVEQDDQVSPSSTFCKVYTITPLLSNNREKRGLALDGKLKHEDTNLASSTIVKEGANKEVLGILVSYRVKVKLVVSRGGDVSVELPFVLMHPKPHDHIALPRPQSAATHPPTLLPSAVPETDAPVDTNLIEFETNYATDDDIVFEDFARLRLKGLKDEDYDDQFC

The next lines start with the molecule.

Molecule: arrestin-2 (from UniProt P17870 1-418) (natural protein)
binding to inactive ERK2 as percent of that to the active form [1]: 33%

B2: arrestin-2, P17870 1-418 (natural protein)
chain: MGDKGTRVFKKASPNGKLTVYLGKRDFVDHIDLVEPVDGVVLVDPEYLKERRVYVTLTCAFRYGREDLDVLGLTFRKDLFVANVQSFPPAPEDKKPLTRLQERLIKKLGEHAYPFTFEIPPNLPCSVTLQPGPEDTGKACGVDYEVKAFCAENLEEKIHKRNSVRLVIRKVQYAPERPGPQPTAETTRQFLMSDKPLHLEASLDKEIYYHGEPISVNVHVTNNTNKTVKKIKISVRQYADICLFNTAQYKCPVAMEEADDTVAPSSTFCKVYTLTPFLANNREKRGLALDGKLKHEDTNLASSTLLREGANREILGIIVSYKVKVKLVVSRGGLLGDLASSDVAVELPFTLMHPKPKEEPPHREVPEHETPVDTNLIELDTNDDDIVFEDFARQRLKGMKDDKEEEEDGTGSPRLNDR
increase of ERK2 phosphorylation (32P incorporation) by purified MEK1 in the presence of 4.4 pmol arrestin-2, against no arrestin [4]: 33%
